Results taken from publication PMC7110780, “Multimodular fused acetyl–feruloyl esterases from soil and gut Bacteroidetes improve xylanase depolymerization of recalcitrant biomass” (Biotechnology for Biofuels, 2020).

Key:
[1] = system: CC(=O)Oc1ccc([N+](=O)[O-])cc1; assay: purified protein; type: biochemical, Bacteroides ovatus; conditions: pH 8.0, 37 °C, 100 mM buffer
[2] = system: CC(=O)Oc1ccc2c(C)cc(=O)oc2c1; assay: purified protein; type: biochemical, Bacteroides ovatus; conditions: pH 8.0, 37 °C, 100 mM buffer

| Substance | Km [1] | kcat [1] | kcat/Km [1] | Km [2] | kcat [2] | kcat/Km [2] |
| --- | --- | --- | --- | --- | --- | --- |
| BoCE1 (Bacteroides ovatus) | 1400 ± 100 µM | 0.7 ± 0.02 s⁻¹ | 500 ± 40 M⁻¹ s⁻¹ | 40 ± 10 µM | 0.28 ± 0.01 s⁻¹ | 7100 ± 1600 M⁻¹ s⁻¹ |
| BoCE6 (Bacteroides ovatus) | 1800 ± 200 µM | 36 ± 2.2 s⁻¹ | 20100 ± 2700 M⁻¹ s⁻¹ | 27 ± 6 µM | 1.2 ± 0.1 s⁻¹ | 42800 ± 10000 M⁻¹ s⁻¹ |
